Assay results taken from publication PMC2064744 (The Journal of Cell Biology, 2007).

What was measured:
[1] = target: T1, tandem PALS L27 domains; assay: SEC
T1 chain: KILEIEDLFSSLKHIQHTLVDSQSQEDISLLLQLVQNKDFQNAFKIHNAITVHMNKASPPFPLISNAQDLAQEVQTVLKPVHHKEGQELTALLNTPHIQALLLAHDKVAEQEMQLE

[2] = target: T2, tandem L27 domain of rat CASK (L27NL27C_CASK, residues 329-460) (rat, UniProt Q62915 329-460); assay: SEC
T2 sequence: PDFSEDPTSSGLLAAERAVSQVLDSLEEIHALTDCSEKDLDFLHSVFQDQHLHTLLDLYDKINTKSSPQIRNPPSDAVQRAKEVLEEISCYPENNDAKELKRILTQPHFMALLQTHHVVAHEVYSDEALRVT

B1: PATJ L27 (domain or fragment)
chain: MPENPAAEKMQVLQVLDRLRGKLQEKGDTTQNEKLSAFYETLKSPLFNQILTLQQSIKQLKGQLS
B1 was tested, and the “stoichiometry N” value [1] was 1.

B2: L27 domain of rat DLG (L27DLG, residues 1-65) (domain or fragment)
chain: MPVRKQDTQRALHLLEEYRSKLSQTEDRQLRSSIERVISIFQSNLFQALIDIQEFYEVTLLDNPK
B2 was tested, and the “stoichiometry N” value [2] was 1.

B3: MALS L27 (in the MALS/PALS/PATJ L27 complex, unpublished data) (domain or fragment)
chain: AALVEPLGLERDVSRAVELLERLQRSGELPPQKLQALQRVLQSRFCSAIREVYEQLYDTLDITGSAEVRAHATAKAT
B3 was tested, and the “stoichiometry N” value [1] was 1.

B4: L27 domain of mouse MALS (L27_MALS, residues 2-78) (domain or fragment)
chain: AALGEPVRLERDICRAIELLEKLQRSGEVPPQKLQALQRVLQSEFCNAVREVYEHVYETVDISSSPEVRANATAKAT
For B4, the “stoichiometry N” value [2] was 1.
